Assay results from IntAct's records for PubMed 14673118.

B1: Thioredoxin (Synechocystis sp. (strain PCC 6803 / Kazusa)), P52231 (parent)
chain: MSATPQVSDASFKEDVLDSELPVLVDFWAPWCGPCRMVAPVVDEISQQYEGKVKVVKLNTDENPNTASQYGIRSIPTLMIFKGGQRVDMVVGAVPKTTLASTLEKYL
partner: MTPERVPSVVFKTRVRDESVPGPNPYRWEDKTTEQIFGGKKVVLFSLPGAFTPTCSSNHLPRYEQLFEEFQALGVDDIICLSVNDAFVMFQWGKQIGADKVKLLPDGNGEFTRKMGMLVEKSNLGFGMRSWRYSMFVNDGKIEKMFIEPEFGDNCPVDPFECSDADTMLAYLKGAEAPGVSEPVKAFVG
B2: Thioredoxin (Synechocystis sp. (strain PCC 6803 / Kazusa)), P52231 (parent)
chain: B1 chain
partner: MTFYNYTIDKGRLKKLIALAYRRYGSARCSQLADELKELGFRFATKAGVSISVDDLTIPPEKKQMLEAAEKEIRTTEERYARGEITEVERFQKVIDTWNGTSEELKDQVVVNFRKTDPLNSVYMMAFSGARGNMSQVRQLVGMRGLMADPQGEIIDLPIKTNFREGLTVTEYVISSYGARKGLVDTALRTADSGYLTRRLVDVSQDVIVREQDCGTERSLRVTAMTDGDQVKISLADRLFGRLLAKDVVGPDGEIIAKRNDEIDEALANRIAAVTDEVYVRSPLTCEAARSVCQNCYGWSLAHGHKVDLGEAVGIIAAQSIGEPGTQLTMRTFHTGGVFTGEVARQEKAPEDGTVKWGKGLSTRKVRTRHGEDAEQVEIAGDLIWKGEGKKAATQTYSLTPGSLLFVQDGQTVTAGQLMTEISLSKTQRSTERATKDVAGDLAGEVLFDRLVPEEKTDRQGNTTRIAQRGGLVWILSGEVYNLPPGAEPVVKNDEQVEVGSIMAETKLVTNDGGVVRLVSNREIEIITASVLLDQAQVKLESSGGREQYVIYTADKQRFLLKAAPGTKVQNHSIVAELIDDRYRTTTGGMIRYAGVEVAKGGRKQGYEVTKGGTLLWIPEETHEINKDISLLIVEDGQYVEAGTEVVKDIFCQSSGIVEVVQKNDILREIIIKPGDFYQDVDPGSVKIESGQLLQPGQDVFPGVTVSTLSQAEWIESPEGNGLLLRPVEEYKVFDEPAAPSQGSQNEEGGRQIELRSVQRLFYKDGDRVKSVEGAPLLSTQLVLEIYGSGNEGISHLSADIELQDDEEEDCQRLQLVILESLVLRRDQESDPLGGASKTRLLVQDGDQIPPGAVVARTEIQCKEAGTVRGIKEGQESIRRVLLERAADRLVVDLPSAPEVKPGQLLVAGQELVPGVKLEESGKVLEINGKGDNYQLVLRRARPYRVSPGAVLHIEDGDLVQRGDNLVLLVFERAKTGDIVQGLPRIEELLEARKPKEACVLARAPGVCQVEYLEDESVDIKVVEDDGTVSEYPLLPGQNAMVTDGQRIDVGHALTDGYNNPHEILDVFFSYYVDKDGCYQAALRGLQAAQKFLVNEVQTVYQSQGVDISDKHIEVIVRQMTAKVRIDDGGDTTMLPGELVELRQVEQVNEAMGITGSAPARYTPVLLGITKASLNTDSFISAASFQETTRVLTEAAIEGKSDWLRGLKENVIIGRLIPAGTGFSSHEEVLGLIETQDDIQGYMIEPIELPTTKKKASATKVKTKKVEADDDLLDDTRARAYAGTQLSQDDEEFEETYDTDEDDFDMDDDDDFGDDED
B3: Thioredoxin (Synechocystis sp. (strain PCC 6803 / Kazusa)), P52231 (parent)
chain: B1 chain
partner: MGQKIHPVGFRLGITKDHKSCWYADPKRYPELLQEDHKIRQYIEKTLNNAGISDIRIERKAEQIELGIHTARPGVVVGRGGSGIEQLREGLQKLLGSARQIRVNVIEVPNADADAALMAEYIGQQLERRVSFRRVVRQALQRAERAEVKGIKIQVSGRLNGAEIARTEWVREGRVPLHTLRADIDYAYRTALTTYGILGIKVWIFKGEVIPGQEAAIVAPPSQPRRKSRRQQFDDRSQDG
B4: Thioredoxin (Synechocystis sp. (strain PCC 6803 / Kazusa)), P52231 (parent)
chain: B1 chain
partner: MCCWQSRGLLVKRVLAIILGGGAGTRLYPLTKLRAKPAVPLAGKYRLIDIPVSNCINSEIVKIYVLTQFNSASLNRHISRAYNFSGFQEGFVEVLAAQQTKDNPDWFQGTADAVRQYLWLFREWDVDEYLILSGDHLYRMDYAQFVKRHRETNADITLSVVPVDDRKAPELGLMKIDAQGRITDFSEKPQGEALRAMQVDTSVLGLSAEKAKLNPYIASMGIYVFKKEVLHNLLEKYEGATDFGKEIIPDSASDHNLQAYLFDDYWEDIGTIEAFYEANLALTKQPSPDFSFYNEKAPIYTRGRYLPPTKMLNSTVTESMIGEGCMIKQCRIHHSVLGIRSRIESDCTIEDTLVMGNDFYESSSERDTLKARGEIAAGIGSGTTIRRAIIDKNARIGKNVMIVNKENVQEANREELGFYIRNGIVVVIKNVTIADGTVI
B5: Thioredoxin (Synechocystis sp. (strain PCC 6803 / Kazusa)), P52231 (parent)
chain: B1 chain
partner: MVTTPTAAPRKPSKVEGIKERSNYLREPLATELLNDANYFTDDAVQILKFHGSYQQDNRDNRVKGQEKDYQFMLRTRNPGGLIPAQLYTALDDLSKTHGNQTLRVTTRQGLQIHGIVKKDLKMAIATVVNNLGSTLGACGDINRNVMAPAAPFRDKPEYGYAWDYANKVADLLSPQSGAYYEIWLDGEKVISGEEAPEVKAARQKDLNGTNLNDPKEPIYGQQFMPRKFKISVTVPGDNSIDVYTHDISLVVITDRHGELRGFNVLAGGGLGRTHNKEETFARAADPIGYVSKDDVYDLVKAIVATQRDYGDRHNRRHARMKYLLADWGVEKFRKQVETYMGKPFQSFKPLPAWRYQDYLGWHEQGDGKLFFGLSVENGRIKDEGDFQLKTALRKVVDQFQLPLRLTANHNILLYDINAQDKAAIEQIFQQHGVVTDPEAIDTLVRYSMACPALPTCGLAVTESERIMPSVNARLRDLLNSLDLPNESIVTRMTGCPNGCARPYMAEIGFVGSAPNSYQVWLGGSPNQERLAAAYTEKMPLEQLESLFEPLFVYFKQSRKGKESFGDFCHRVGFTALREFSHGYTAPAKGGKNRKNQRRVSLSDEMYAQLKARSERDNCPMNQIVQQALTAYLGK
B6: Thioredoxin (Synechocystis sp. (strain PCC 6803 / Kazusa)), P52231 (parent)
chain: B1 chain
partner: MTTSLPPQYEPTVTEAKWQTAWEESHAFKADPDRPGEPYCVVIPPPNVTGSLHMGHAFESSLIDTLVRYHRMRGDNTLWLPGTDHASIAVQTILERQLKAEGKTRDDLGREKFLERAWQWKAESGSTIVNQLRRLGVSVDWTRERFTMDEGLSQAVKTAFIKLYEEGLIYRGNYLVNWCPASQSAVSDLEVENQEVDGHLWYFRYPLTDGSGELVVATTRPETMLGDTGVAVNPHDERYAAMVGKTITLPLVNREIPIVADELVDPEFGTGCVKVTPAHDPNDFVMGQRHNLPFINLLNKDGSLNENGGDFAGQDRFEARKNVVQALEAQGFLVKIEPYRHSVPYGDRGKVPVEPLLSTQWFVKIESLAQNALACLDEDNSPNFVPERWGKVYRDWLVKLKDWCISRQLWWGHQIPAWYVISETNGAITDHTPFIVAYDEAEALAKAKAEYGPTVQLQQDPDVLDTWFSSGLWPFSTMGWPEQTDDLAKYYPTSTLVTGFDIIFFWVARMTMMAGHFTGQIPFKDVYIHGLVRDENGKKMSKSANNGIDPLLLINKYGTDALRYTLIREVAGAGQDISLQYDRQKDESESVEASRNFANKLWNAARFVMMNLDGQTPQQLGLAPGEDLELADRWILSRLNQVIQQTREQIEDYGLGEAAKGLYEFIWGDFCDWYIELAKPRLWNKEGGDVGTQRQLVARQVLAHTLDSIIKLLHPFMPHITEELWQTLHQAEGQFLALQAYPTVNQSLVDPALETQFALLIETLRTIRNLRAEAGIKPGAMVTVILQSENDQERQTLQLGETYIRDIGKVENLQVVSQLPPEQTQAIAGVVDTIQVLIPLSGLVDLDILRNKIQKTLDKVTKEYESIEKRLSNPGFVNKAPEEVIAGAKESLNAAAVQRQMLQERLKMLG

Variants of: B1
Conditions: with prx5_syny3 prx5, P73728

| Variant | effect of a mutation on the interaction |
| --- | --- |
| C35S | increasing interaction |

Variants of: B2
Conditions: with rpoc2_syny3 rpoC2, P73334

| Variant | effect of a mutation on the interaction |
| --- | --- |
| C35S | increasing interaction |

Variants of: B3
Conditions: with rs3_syny3 rpsC

| Variant | effect of a mutation on the interaction |
| --- | --- |
| C35S | increasing interaction |

Variants of: B4
Conditions: with glgc_syny3 glgC

| Variant | effect of a mutation on the interaction |
| --- | --- |
| C35S | increasing interaction |

Variants of: B5
Conditions: with sir_syny3 sir

| Variant | effect of a mutation on the interaction |
| --- | --- |
| C35S | increasing interaction |

Variants of: B6
Conditions: with syv_syny3 valS

| Variant | effect of a mutation on the interaction |
| --- | --- |
| C35S | increasing interaction |
